Results taken from the nanobody polyreactivity screen of Harvey et al. (2022).

Assay: yeast display, Sf9 membrane polyspecificity reagent, FACS + sequencing; frameworks hold sequencing errors
Procedure, shortened: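 Genes from sorted yeast were amplified by colony PCR, read by MiSeq 2 × 250 sequencing and filtered on CDR length. These cells carried a synthetic nanobody library in Saccharomyces cerevisiae BJ5465 and were sorted by FACS into low and high (top ~1%) gates on anti-HA and streptavidin fluorescence. Polyreactivity is labelled according to the gate of origin.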

Sequence | polyreactivity (PSR sort gate)
QVQLVESGGGLVQAGGSLRLSCAASGYTFRSYLGWYRQAPGKEREFVADISTSVTNTYYADSVKGRFTISRDNAKNTVYLQMISLKPEDTAVYYCAAGVQSVYNGEPGIILDFDYWGQGTQVTVSS | low polyreactivity
QVQLVESGGGLVQAGGSLRLSCAASGSIFVRNTMGWYRQAPGKERELVATISSGGRTYYADSVKGRFTISRDNAKNTVYLQMNSLKPEDTAVYYCAAGYSYAQYSYPFLSFAFGYWGQGTQVTVSS | high polyreactivity
QVQLVESGGGLVQAGGSLRLSCAASGSTFSANAMGWYRQAPGKERELLAAISSGDITYYADSVKGRFTISRDNAKNTVYLQMNSLKPEDTAVYYCAKYTRPTGNVDDGFEYWGQGTQVTVSS | low polyreactivity
QVQLVESGGGLVQAGGSLRLSCAASGYTFRGYAMGWSRQAPGKERELVAAISWSGGRTYYADSVKGRFTISRDNAKYTVYLQMNSLKPEDTAVYYCAAPGQHSWGQGTQVTVSS | high polyreactivity
QVQLVESGGGLVQAGGSLRLSCAASGRIFRWYAMGWYRQAPGKERELVATISSTGGSTYYADSVKGRFTISRDNAKNTVYLQMNSLKPEDTAVYYCNALSFITITVYSEGDYWGQGTQVTVSS | low polyreactivity
QVQLVESGGGLVQAGGSLRLSCDASGRIFRKNAMGWYRQAPGKERELVAAISGGGGSTYYADSVKGRFTISRDNAKNTVYLQMNSLKPEDTADYYCNAPILPGYWGQGTQVTVSS | high polyreactivity
QVQLVESGGGLVQAGGSLRLSCAASGSTIRYYAMGWYRQAPGKEREFVAAITRSGGRTYYADSVKGRFTISRDNAKNTVYLQMNSLKPEDTADYYCAKVLYSPIGKYDYWGQGTQVTVSS | high polyreactivity
QVHLVESGGGLVHAGGSIRLSCAASGSIFGYYAMGWYRQAPGKEREFVAAITWNGGSTYYADSVKGRFTISRDNAKNTVYLEMISLKPEDTAVYYCARTSYARFRNGWTYDHWGQGTQVSVSS | low polyreactivity
QVQLVESGAGLVQAGGSLRLSCAPSGRIFDKYAMGWYRQAPGTERELVAAIDWSGGSTYYADSVKGRFTISRDNAKNTVYLQMNCLKPEDTAVYYCAAYWYYEDGQSEARLYGYDYWGQGTQVTVSS | low polyreactivity
QVQLQESGGGLVQAGGSLRLSCAASGTIFRFRYMGWHRQAPGKERELVAGINGGTTTYYADSVIGRFTISRDNAIKTVYLQMNSLKPDDTAVYNCAAGASRLTYYDYWGQGTQVTVSS | low polyreactivity
QVQLVESGGGLVQAGGSLRLSCAASGRIFGYYAMGWYRQATGKERELVADITESGTSTYYADSVKGRFTISRDNAKNTVYLQMNSLKPEDTAVYYCAAGYWWRYALYVYWGQGTQVTVSS | low polyreactivity
QVQLVESGGGLVQAGGSLRLSCAASGSIFTYYAMGWYRQAPGKERELVAAISWSGGSTYYADSVKGRFTISRDNAKNTVYLQMNSLKPEDTAVYYCAAGRFYKWSRYQEYDYWGQGTQVTVSS | low polyreactivity
QVQLVESWGGLVQAGGSLRLSCAASGRTFFYYAMGWYRQAPWKERELVAAISKSGGRTYYADSVKGRFTISRDNAKNTVYLQMNSLKPEDTAVYYCATLAQWYDRELDYWGQGTQVTVSS | high polyreactivity
QVQLVESGGGLVQAGGSLRLSCAASGSISDVYAMGSYRQAPGKETELVAAITSGASTYYADSVKGRFTISRDNAKNTVYLQMNSLKPEDTAVYYCAADSDSQWGMDYWGQGTQVTVSS | low polyreactivity
QVQLVESGGGLVQAGGSLRLSCSASGSIFPYYSMGWYRQAPGQERQLVAAISYSGGRTRYADSVKGRFTISRDNAKNTVYLQMNSLKPEDTAVYYCAVVDRHQPYGRQLDYWGQGTQVTVSS | low polyreactivity
QVQLVESGGGLVQARGSLRLSCAASGSIFRKYAMGWYRQAPGKERELVAVITTDGSTNYADSVKGRFTISRDNAKNTVYLQMNSLKPEDTAVYYCNAVRSSIGTDNVYWGLGTQVTVSS | low polyreactivity

Sequence | polyreactivity (PSR sort gate)
QVQLRESGCGLVQAGGNLRLSCAASGNIFDADIMGWYGQAPGKERELVASITEGGSTNYADSVRCRFTISRDNAKNTVYLQMISLKPEDTAVYYCTAIAYPDIPTYFDHDSDYFYWGQGTQVTVSS | high polyreactivity
QVQLVESGGGLVQAGGSLRLSCAASGRTFSDYAMGWYRQAPGKERELVAAISNGGNTYADSVKGRFTISRDNAKNTVYLQMNSLKPEDTAVYYCNKESGDTARQSIMPSGRGDYWGQGTQVTVSS | low polyreactivity
QVQLVESGGVLVQAGGSLRLSCAASGSTFGWYAMGWYRQAPGKERELVAAITSVGSTYYADYVKGRFTISRDNAKNTVYLQMNSLKPEDTAVYYCAAGWTYAYTLSLYEYWGQGTQVTVSS | low polyreactivity
QVQLVESGGGLVQAGGSLRLSCAASGLTFLINAMGWYRQAPGKERELVAAITSSGGSTSYADSVKGRFTISRDNAKYTVYLQMNSLKPEDTAVYYCAADLNAYPQRAYDYWGQGTQVTVSS | low polyreactivity
QVQLVESGGGLVQAGGSLRLICAASGRTFYSYAMGWYRQAPGKERELVAAISSGGTTYYADSVKGRFTISRDNAKNTDYLQMNSLKPEDTAVYYCATSRAWRYRSYYWGQGTQVTVSS | high polyreactivity
QVQLVESGGGLVQAGGSLRLSCAASGRIFVYNAMGWYRQAPGKERELVASISWSGDSTYADSVKGRFTISRDNAKNTVYLQMNSLKPEDTAVYYCAAYSQADYQNMDYWGQGTQVTVSS | low polyreactivity
QVQLVESGGGLVQAGGSLRLSCAASGRIFSRYGMGWYRQAPGKERELVAGISSSGGSTYYADSVKGRFTISRDNAKNTVYLQMNSLKPEDTAVYYCAADDGFYGPDLDYRGQGTQVTVSS | low polyreactivity
QVQRVESGGGLVQAGGSLRLSCAASGNTFKYNTMGWYRQAPGTERELVAAISSGGNTKYADSVKGRFTISRDNGKNTDYFQMNSLKPEDTAVNYCATTFPRKGRFRYDYWGQGTQVTVSS | high polyreactivity
QVQLVESGGGLVQAGGSLRLSCAASGTFVTYMGWYRQAPGKERELVAAIRNGGSTNYADSVKGRFTISRDKAKNTVYLQMNSLKPEDTAVYYCAADRAGSIMNYWGQGTQVTVSS | low polyreactivity
QVQLVESGGGLVQAGGSLRLSCAAYGITFTPNAMGWYRQAPGKEREFVAAITYSGGSTYYADSVKGRFTISRDNAKNTVYLQMNSLKPEDTAVYYCAAVYYLLYYEAYYYWGQGTQVTVSS | low polyreactivity
QVQLVESGGGLVQAGGSLRLSCAASGRIFSPSDMGWYRQAPGKERELVAAIRSDGGRTHYADSVKGRFTISRDNAKNTVYLQMNTLKPEDTAVYYCARDNGRTITTTDTYDYWRQGTQVTVSS | low polyreactivity
QVQLVESGGGLVQAGGSLRLSCAASGFIFRYNAMGWNRQAPGKERELVARINSGVSTNYADSVKGRFTISRDNAKNTVYLQMNSLKPEDTAVYYCNARVRRGYSRFDYWGQGTQVTVSS | high polyreactivity
QVQLVESGGGLVQAGGSLRLSCAASGSIFTINTMGWYRQAPGKERELVAAITGSGGITYYADSVKGRFTISRDNAKNTVYLQMNSLKPEDTAVYYCAADTGYVHDGYWGQGTQVTVSS | low polyreactivity
QVQVVESGGGLVQAGGSLRLSCAGSGSIFYFYAMGWSRQAPGKARELVATITSGGRTYYADSVKGRFTISRDNAKNTVYLQMISLKPEDTAVYYCNSRPVSYRYSSYIFNYWGQGTQVTVSS | high polyreactivity
QVQLVESGGGLVQAGGSLRLSCAASGSIFRYYVMGWYRQAPGKERELVAAISTGDRTNYADSVKGRFTISRDNAKNTVYLQMNILKPEDTAVYYCNADYVVGWARLEFNYWGQGTQVTVSS | low polyreactivity
QVQLVESGGGLVQAGGSLRLSCAASGRTFRGNAMGWYRPAPGKERELVAAITTAGGTYYADSVKGRFTISRDNAKNTVYLQMNSLKPEDTAVYYCAKLSHRGQSTGVDYWGQGTQVTVSS | low polyreactivity
